Results taken from the RNAGym collection of RNA variant scans (doi:10.1073/pnas.2313332121).
This sample holds only a part of the variants without activity.

B1: TPR 5TU (parent)
chain: GGAUCUUCUCGAUCUAACAAAAAAGACAAAUCUGCCACAAAGCUUGAGAGCAUCUUCGGAUGCAGAGGCGGCAGCCUUCGGUGGCGCGAUAGCGCCAACGUUCUCAACUAUGACACGCAAAACGCGUGCUCCGUUGAAUGGAGUUUAUCAUG

Variants of: B1
Assay: polymerase ribozyme fitness, log enrichment relative to wild type (log ratio); higher = more active; in vitro selection for triplet polymerase activity
In short: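 Each subunit of a heterodimeric triplet polymerase ribozyme was represented by a PCR-built, transcribed mutant library that underwent triplicate single-round in vitro selection with frozen incubation at −7 °C. Extended constructs were recovered by gel excision, streptavidin-bead capture and RT-PCR, and Illumina sequencing of input and output libraries kept genotypes with ≥10 input reads and ≥1 read per output. Fitness is the logarithm of genotype enrichment relative to wild-type enrichment, from inverse-variance-weighted replicate averages, with a logarithm base of 2.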

Variant	polymerase ribozyme fitness (log ratio)
GGAUCUUCGCGAUCUAACAAAAAAGACAAAUCUGCCACAAAGCUUGAGAGCAUCUUCGGAUGCAGAGGCGGCAGCCUUCGGUGGCGCGAUAACGCCAACGUUCUCAACUAUGACAUGCAAAACGUGUGCUCCGCUGAAUGGAGUUUAUCAUG [U9G G92A C116U C125U U134C]	≤ -4.2
GGAUCUUCGCGAUCUAACAAAAAAGACAAAUCUGCCACAAAGCUUGAGAGCAUCUUCGGAUGCAGAGGCGGCAGCCCUCGGUGGAGCGAUAGCGCCAACGUUCUCAAUUAUGACACGCACAACGCGUGCUCCGUUGAAUGCAGUUUAUCAUG [U9G U77C C85A C108U A120C G141C]	≤ -4.2
GGAUCUUCGCGAUCUAACAAAAAAGACAAAUCUGCCACAAAGCUUGAGAGGAUCUUCGGAUGCAGAGGCGGCAGCCUUCGGUGACGCGAUAGCGCCAACGUUCUCAACUAUGACACGCAAAACGCGUGCUCCGUUGAAUGCAGUUUAUCAUG [U9G C51G G84A G141C]	≤ -4.2
GGAUCUUCGCGAUCUAACAAAAAAGACAAAUCUGCCACAAAGCUUGAGAGCAUCUUCGGAUGCAGAGGCGGCAGCCUUCGGUGGCGCCAUAGCGCCAAAGUUCUCAACUAUGACACGCUAAACGCGUGCUCCGUUGAAUGGAGUUUAUCAUG [U9G G88C C99A A119U]	≤ -4.2
GGAUCUUCGCGAUCUAACAAAAAAGACAAAUCUGCCACAAAGCUUGAGAGCAUCUUCGGAUGCAGAGGCGGCAGCCUUCGGUGGCGGGAUAGUGCCAACGUUCUCAACUAUGACACGCAAAACGAGUGCUCCGUUGAAUGGAGUUUAUCAUG [U9G C87G C93U C125A]	≤ -4.2
GGAUCUUCGCGAUCUAACAAAAAAGACAAAUCUGCCACAAAGCUUGAGAGCAUCUUCGGAUGCAGAGGCGGCAGCCUUCGGUGGCACGAUAGCGCCAACGUUCUCAACUAUGACACGCAAAACGCGUGCUCCGUUGAGUGGAGUUUAUCAUG [U9G G86A A138G]	≤ -4.2
GGAUCUUCGCGAUCUAACAAAAAAGACAAAUCUUCCACAAAGCUUGAGAGCAUCUUCGGAUGCAGAGGCGGCAGCCUUCGGUGGAGCGAUAGCGCCAACGUUCUCAACUAUGACACGCAAAACGCGUGCUCCGUUGAAAGGAGUUUAUCAUG [U9G G34U C85A U139A]	≤ -4.2
GGAUCUUCUAGAUCUUACAAAAAAGACAAAUCAGCCACAAAGCUUGAGAGCAUCUUCGGAUGCAGAGGCGGCAGCCUUCGGUGGCGCGAUAGCGCCAACGUUCUCAACUAUGACACGCAAUACGCGUGCUCCGUUGAAUGCAGUUUAUCAUG [C10A A16U U33A A121U G141C]	-4.19
GGAUCUUCGCGAUCUAACAAAAAAGACAAAUCUGCCACAAAGCUUGAGAGCAUCUUCGGAUGCAGAGGCGGCAGCCUUCGGUGGAGCGAUAGCGCCAACGUUAUCAACUAUGACACGGAAAACGCGUGCUCCGAUGAAUGGAGUUUAUCAUG [U9G C85A C103A C118G U134A]	≤ -4.2
GGAUCUUCGCGAUCUAACAAAAAAGACAAAUCUGCUACAAAGCUUGAGAGCAUCUUCGGAUGCAGAGGCGGCAGCAUUCGGUGGCGCGAUAGCACCAACGUUCUCAACUAUGACACGCAAAACGCGUGCUCCGUUGAAUGGAGUUUAUCAUG [U9G C36U C76A G94A]	≤ -4.2
GGAUCUUCGCGAUCUAACAAAAAAGACAAAUCUGCCACAAAGCUUGAGAGCAUCUUCGGAUGCAGAGGCGGCAGCCUUCGGUGGAGCGAUAGCGCCAACGUUCUCAACUAUGACACGCAAAACGCGUGCUCCGUUGAAUGGAGUUUAUCAUG [U9G C85A]	-3.76
GGAUCUUCGCGAUCUAACAAAAAAGACAAAUCUGCCACAAAGCUUGAGAGCAUCUUCGGAUGCAGAGGCGGCAGCCUUCGGUGGCGCGAUAGCGCUAACGUUCUCAACUAUGACACGCAAAACGCGUGCUCCGUUGAAUGGAGUUUAUCAUG [U9G C96U]	-3.76
GGAUCUUCGCGAUCCAACAAAAAAGACAAAUCUGCCACAAAGCUUGAGAGCAUCUUCGGAUGCAGAGGCGGCAGCCUUCGGUGGCGGGAUAGCGCCAACGUUCUCAACUAUGGCACGCAAAACGCGUGCUCCGUUGAAUGGGGUUUAUCAUG [U9G U15C C87G A113G A142G]	≤ -4.2
GGAUCUUCUAGGUCUAACAAAACAGACAAAUCUGCCACAAAGCUUGAGAGCAUCAUCGGAUGCAGAGGCGGCAGCCUUCGGUGGCGCGAUAGCGCCAACGUUCUCAACUAUGACACGCAAAACGCGUGCUCCGUUGAAUGGAGUUUAUCAUG [C10A A12G A23C U55A]	≤ -4.2
GGAUCUUCGCGAUCGAACAAAAAAGAGAAAACUGCCAAAAAGCUUGAGAGCAUCUUCGGAUGCAGCAGCGGCAGCCUUCGGUGGCGUGAUAGCGCCAAGGUUCUCAACUAUGACACGCAAAACGCGUGCUCCGUUGAAUGGACUUUAUCAUG [U9G U15G C27G U31A C38A A66C G67A C87U C99G G143C]	≤ -4.2
GGAUCUUCUAGGUCUAACAAAGAAGACAAAUCUGCCACAAAGCUUGAGAGCAUCUACGGAUGCAGAGGCGGCAGCCUUCGGUGGGGCGAUAGCGCCAACGUUCUCAACUAUGACACGCAAAACGCGUGCUCCGUUGAAUGGAGUUUAUCAUG [C10A A12G A22G U56A C85G]	≤ -4.2
GGAUCUUCGCGAUCUAACAAAAAACACAAAUCUGCCACAAAGCUUGGGAGCAUCUUCGGAUGCAGAGGCGGCAGCCUUCGGUGGCGAGAUAUCGCCAACGUUCUCAACUAUGAAACGCAAAACGCGUGCUCCGUUGAAUGGAGUUUAUCAUG [U9G G25C A47G C87A G92U C114A]	≤ -4.2
GGAUCUUCGCGAUCUAACAAAAAAGACAAAUCUGCCACAAAGCUUGAGAGCAUGUUCGGAUACAGAGGCGGCAGACUUCGCUGGCGCGAUAGGGCAAACGUUGUCAACUAUGACACGUAAAACGCGUGCUCCGUUGAAUGGAGUUUAUCAUG [U9G C54G G62A C75A G81C C93G C96A C103G C118U]	≤ -4.2
GGAUCUUCGCGAUCUAACAAAAAAGACAAAUCUGACACGAAGCUUGAGAGCAUCUUCGGAUGCAGAGGCGGCAGCCUUCGGUGGCGAGAUAGCGCCAACGUUCUCAACUAUGACACGCAAAACGUGUGCUCCGUUGAAUGGAAUUUAUCAAG [U9G C35A A39G C87A C125U G143A U151A]	-3.88

Variant	polymerase ribozyme fitness (log ratio)
GGAUCUUCGCGAUCUAACAAAAAAGACAAAUCUGCCACAAAGCUUGACAGCAUCUUCGGAUACAGAGGCGGCAGCCUUCGGAGUCGCGAUAGCGCCAACGUUCUCAACUAUGACACGCAAAACGCGUGCUCCGUUGAAUGGAGUUUAUCAUG [U9G G48C G62A U82A G84U]	≤ -4.2
GGAUCUUCUAGUUCUAACAAAAAAGACAAAUCUGCCACAAAGCUUGAGAGCAUCUUCGGAUGCAGAGGCGGCAGCCUUCCGUGGCGCGAUAGCACCAACGUUCUCAACUAUGACACGCAAAACGCGUGCUCCGUUGAAUGGAGUUUAUCAUG [C10A A12U G80C G94A]	≤ -4.2
GGAUCUUCGCGAUCUAACAAAAAAGACAAAUUUGCCAUAAAGCUUGAGCGCAUCUUCAGUUGCAGAGGCGGCAGCCUUCGGUGGCGGGAUAGCGUCAACGUUCUCAACUAUGACACGCAAAACGCGUGCUCCUUUGAAUGGUGUUUAUCAUG [U9G C32U C38U A49C G58A A60U C87G C95U G133U A142U]	≤ -4.2
GGAUCUUCGCGAUCUAACAAAAAAGACAAAUCUGCCACAAAGCUUGAGAGCAUCUACGGAUGCAGAGGCGGCAGCCUUCGGUGGCGCGAUAGCGCCAACGUUCUCAACUAUGACACGCAAAACGCGUGCUCCGUUGAAUGGAGUUUAUCAUG [U9G U56A]	-4.07
GGAUCUUCGCGAUCUAACAAAAAAGACAAAUCUGCCACAAAGCUUGAGAACAUCUUCGGAUGCAGAGGCGGCAGCCUUCGGUAGCGCGAUAGCGCCAACGUUCUCAACUAUGACACGCAAAACGCGUGCUCCUUUGAAUGGAGUUUAUCAUG [U9G G50A G83A G133U]	≤ -4.2
GGAUCUUCGCGAUCUAACAAAAAAGACAAAUCUGCCACAAAGCUUGAGAGCAUCUUCGGAUGCAGAGGCGGCAGCCUUCGGUGGCGUGAUAGCGCCAACGUUCUCAACUAUGACACGCAAAACGCGUGCUCCGUUGAAUGGAGUUUAUCAUG [U9G C87U]	-4.11
GGAUCUUCGCGAUCUAACAAAAAAGACAAAUCUGCCACAAAGCUUGAGAGCAUCUUCGGAUGCAGAGGCGGCAGCCUUCGGUGGCGCGAUAGCGCCAACGUUCUCAACUAUGACACGCAAAACGCGUGCUCCGUUGAAUGGAGUCUAUCAUG [U9G U145C]	-3.95
GGAUCUUCGCGAUCUAACAAAAAAGACAAAGCUGCCACAAAUCUUGAGAGCAACUUCCGAUGCAGAGGCGGCAGCCUUCGGUGGCGCGAUAGCGCCAACGUUCUCAACUAUGACACGCAAAACGCGUGCUCCGUUGAAUGGAGUUUAUCAUG [U9G U31G G42U U53A G58C]	≤ -4.2
GGAUCUUCGCGAUCUAACAAAAAAGACAAAUCUGUCACAAAGCUUGAGAGCCUCUUCGGAAGCAGAGGCGGCAGCCUUCGGUGGCGAGAUAGCGCCAACGCUCUCAACUAUGACACGCAAAACGAGUGCUCCGUUGAAUGGAGUUUAUCAUG [U9G C35U A52C U61A C87A U101C C125A]	≤ -4.2
GGAUCUUCGCGAUCUAACAAAAAAGACAAAUCUGCCACAAAGCUUGAGAGCAUCUUCGGAUGCAGAGGCGGCAACCUUCGGUGACGCGAUAGCGCCAACGUUCUCAGCUAUGACACGCAAAACGCGUGCUCCGUUGAAUGGAGUUUAUCAUG [U9G G74A G84A A107G]	≤ -4.2
GGAUCUUCUAGAUCUGACAAAAAAGACAAAUGUGCCACAAAGCUUGAGAACAUCUUCGGAUGCAGAGGCGGCAGCCUUCGGUGGCGCGAUAGCGCCAACGUUCUCAACUAUGACACGCAAAACGCGUGCUCCCUUGAAUGGAGUUUAUCAUG [C10A A16G C32G G50A G133C]	≤ -4.2
GGAUCUUCGCCAUCUAACAAAAAAGACAAAUCUGCCACAAAGCUUGAGAGCAUCUUCGGAUGCAGAGGCGGCAGCAUUCGGUGGCGCGAUACCGCCAACGUUCUCAACUAUGACACGCAAAACGCGUGCUCCGCUGAAGGGAGUUUAUCGUG [U9G G11C C76A G92C U134C U139G A150G]	≤ -4.2
GGAUCUUCGCGAUCUAACAAAAAAGACAAAUCGGCCACAAAGCUUGAGAGCAUCUUCGAAUGCAGAGGCGGCAGCCUUCGGUGGCGCGAUAGCGCCAACGUUCUCAACUAUGACACGCAAAACGCGUGCUCCGUUGAAUUGAGUUUAUCAUG [U9G U33G G59A G140U]	≤ -4.2
GGAUCUUCGCGAUCUAACAAAAAAGACAAAUCUGCCACAAAGCUUGAGAGCAUCUUCGGAUGCAGAGGAGGCAGCCUUCGGUGGCGCGAUAGCGCCAACGUCCUCAACUAUGACACGCAAAACGCGUGCUCCGUUGAAUGGAGUUUAUCAUG [U9G C69A U102C]	≤ -4.2
GGAUCUUCGCGAUCUAACAAAAAAGACAAAUCUGCCACAAAGCUUGAGAGCAUCUUCGGAUGCAGAGGCGGCAGCCUUCGGUGGCGCGAUAGCGCCAACGUUCUCAACUAUGACACGCAAAACGCGUGCUCCGUUGAACGGAGUUUAUCAUG [U9G U139C]	≤ -4.2
GGAUCUUCGCGAUCUAACAAAAAAGACAAAUCUGCCACAAAGCUUGAGAGCAACUUCGGAUGCAGAGGCGGCAGCCUUCGGUGGCGCGAUAGCGCCAACGUUCUCAACUAUGACACGCAAAACGCGUGCUCCGUUGAAUGGAGUUUAUCAUG [U9G U53A]	-3.81
GGAUCUUCUAGUUCUAACAAAAAAGACAAAUCUGCCACAAGGCUUGAGAGCAUCUUCGGAUGCAGAGGCGGCAGCCUUCGGUGGCGCGAUAGCGCAAACGUUCUCACCUAUGAAACGCAAAACGCGUGCUCCGUUGAAUGGAGUUUAUCAUG [C10A A12U A41G C96A A107C C114A]	≤ -4.2
GGAUCUUCGCGAUCUAACAAAAAAGACAAAUCUGCCAUAAAGCUUGAGAGCAUUUUAGGGUGCAGAGGCGGCAGCCUUCGGUGGCGCGAUAGCGCCAACGUUCUCAACUAUGACACGCAAAACGCGUGCUCCGUUGAAUGGAGUUUAUCAUG [U9G C38U C54U C57A A60G]	≤ -4.2
GGAUCUUCGCGAUCUAACAAAAAAGACAAAUCUGCCACAAAGCUUCAGAGCAUCUUCGGAUGCAGAGGCGGCAGCAUUCGGUGGGGCGAGAGCGCCAACGUUCUCAACUAUGACACGCAAUACGCGUGCUCCGUUGAAUGGAGUUUAUCAUG [U9G G46C C76A C85G U90G A121U]	≤ -4.2
